This note sets out measurements from patent publication US7572594B2, “Screening assays for agonists or antagonists or receptor activator of NF-κB” (Immunex Corporation, priority 2000, dated 2009).

Entries after “also recorded” stand apart in the source; their conditions may differ.

One assay concerns c-src tyrosine kinase. Kind of assay: c-src immune complex kinase assay in RANK −/− osteoclast precursors infected with RANK retrovirus. The format is cell-based, mouse. The procedure:
Experiments were conducted in which DNA encoding wild-type or human RANK/TRAF6 binding mutant (RANK Δ340-421) was introduced into hematopoietic cells isolated from RANK −/− mice. Full-length and mutant human RANK DNAs were subcloned into the pBMNZ retroviral vector as previously described (Kinsella and Nolan, 1996, Human Gene Therapy 7:1405-1413). Infectious RANK-containing retrovirus was produced in 293-E Phoenix packaging cells as described (Kinsella and Nolan, 1996). Supernatants from these cells were used as a source of infectious virus particles.
The generation of the RANK −/− mice used in these assays has been described previously (Dougall et al., 1999). Spleen cells were isolated from 3-6 week old RANK−/− mice and enriched for osteoclast precursors by depleting the initial cell population of various types of cells other than osteoclast precursors. For this “depletion” step, the cells were incubated with biotinylated antibodies against CD3 (specific for T cells), Ter-119 (specific for erythrocytes), and GR-1 (specific for granulocytes). After the antibodies had bound to their respective target cells, streptavidin-conjugated magnetic beads were added to the culture, and the mixture of cells was passed over magnetic columns (MACS depletion columns; MILLTENNYI). […]
To induce c-src and F-actin rings, recombinant mRANK-L/leucine zipper protein was added to the cultures at a concentration of 1 μg/ml for various times after which the cells were lysed in a buffer containing 50 mM HEPES (pH 7.2), 10% glycerol, 250 mM NaCl and 1% Triton X-100. […] C-src activity in the immune complex was monitored using a commercially available assay kit (Upstate Biotechnology, Lake Placid, N.Y.). […] The phosphorylated substrate peptide was then separated from the residual labeled ATP using phosphocellulose paper and labeled peptide was quantified using a scintillation counter. […]

Another assay relates to RANK. Put plainly: radioimmune assay of reporter surface expression in 293/EBNA cells. The assay is classed as cell-based. The following applies: 48 hours after transfection. The protocol:
Additionally, surface expression of human IL-2α receptor can be analyzed using a radioactive antibody against IL-2α receptor. For the mIL-4R-specific radioimmune assay, mouse anti-human IL-2α monoclonal antibody reactive with mIL-4R was labeled with ^125I via a Chloramine T conjugation method; the resulting specific activity is typically […]. After 48 hours, cells transfected with pGL2-MMP-9/human IL-2 receptor were washed once with media (DMEM, 12 5% FBS). Non-specific binding sites were blocked by the addition of pre-warmed binding media containing 5% non-fat dry milk and incubation at 37° C./5% CO2 in a tissue culture incubator for one hour. The blocking media was decanted and binding buffer containing ^125I anti-mIL-4R (clone M1; rat IgG1) was added to the cells and incubated with rocking at room temperature for 1 hour. After incubation of the cells with the radio-labeled antibody, cells were washed extensively with binding buffer (2 X) and twice with phosphate-buffered saline (PBS). Cells were lysed in 1 ml of 0.5M NaOH, and total radioactivity measured with a gamma counter.

Assay [1] deals with spleen cells from RANK −/− mice. Kind of assay: CaPO4 resorption (pit formation) assay. The format is cell-based, mouse. The following applies: 5 days in 40 ng/ml CSF-1 and 200 ng/ml mRANK-L on CaPO4 film; listed as full-length RANK. An excerpt: The resorption of CaPO4, upon which this assay is based, is considered to be a measure of osteoclast activity. Spleen cells were isolated from 3-6 week old RANK −/− mice and treated as described in Example 9 to remove cells expressing the CD3, Ter-119, and GR-1 antigens. Cells not expressing any of these antigens were harvested and infected as described in Example 9 with retroviral vector particles containing full-length or TRAF6 binding site deletion mutants of RANK.
Following infection, the spleen cells were harvested and plated in MEM containing 10% fetal bovine serum containing 40 ng/ml CSF-1 and 200 ng/ml mRANK-L onto 16 well quartz slides coated with a thin film of CaPO4 (Osteologic, BD Biosystems). After 5 days in culture, the slides were washed, the cells removed by washing with bleach, and the slides washed again with buffer. […] The number of pits in the CaPO4 film is a measure of the extent to which the RANK-L induced the cells grown on that slide to differentiate into osteoclasts.
If desired, the CaPO4 film can be stained using a 0.5% solution of alizarin red for 4 to 5 minutes followed by washing in water. After staining, the resorptive lacunae are visualized by phase contrast microscopy as a clear area on a red background.

B1: wild type RANK: full-length human RANK, receptor activator of NF-κB (SEQ ID NO:2), expressed from vector or retrovirus (protein, listed as Homo sapiens)
chain: MAPRARRRRPLFALLLLCALLARLQVALQIAPPCTSEKHYEHLGRCCNKCEPGKYMSSKCTTTSDSVCLPCGPDEYLDSWNEEDKCLLHKVCDTGKALVAVVAGNSTTPRRCACTAGYHWSQDCECCRRNTECAPGLGAQHPLQLNKDTVCKPCLAGYFSDAFSSTDKCRPWTNCTFLGKRVEHHGTEKSDAVCSSSLPARKPPNEPHVYLPGLIILLLFASVALVAAIIFGVCYRKKGKALTANLWHWINEACGRLSGDKESSGDSCVSTHTANFGQQGACEGVLLLTLEEKTFPEDMCYPDQGGVCQGTCVGGGPYAQGEDARMLSLVSKTEIEEDSFRQMPTEDEYMDRPSQPTDQLLFLTEPGSKSTPPFSEPLEVGENDSLSQCFTGTQSTVGSESCNCTEPLCRTDWTPMSSENYLQKEVDSGHCPHWAASPSPNWADVCTGCRNPPGEDCEPLVGSPKRGPLPQCAYGMGLPPEEEASRTEARDQPEDGADGRLPSSARAGAGSGSSPGGQSPASGNVTGNSNSTFISSGQVMNFKGDIIVVYVSQTSQEGAAAAAEPMGRPVQEETLARRDSFAGNGPRFPDPCGGPEGLREPEKASRPVQEQGGAKA
In the case of B1, in the assay with c-src tyrosine kinase (cell extracts following differentiation), the “32P incorporated into a c-src-specific substrate versus extracts from cells defective in RANK” value is listed as “about 15 fold”. Besides, the c-src activity entry in the assay with c-src tyrosine kinase (cells differentiated after retroviral infection, background = uninfected RANK −/− cells) is given as “high levels of c-src activity”. Also, the “transcriptional activation, reporter detected on the cell surface” value in the assay with RANK is “resulted in transcription of muIL-4R”. For the same molecule, the CaPO4 resorption result in assay [1] is given as “resorbed the CaPO4 matrix; also recorded: high levels of CaPO4 resorption”.
